Measurements reported in patent US20210388087A1 (Chugai, published 2021).
Substitutions are numbered along the chain they refer to. Names and notes keep the numbering of the source.

B1: dBBDu183H S62R/dBBDu072L (antibody, name in Kabat numbering, V domains shown)
VH: QVQLVESGGGLVQPGRSLRLSCAASGFTFSNAWMHWVRQAPGKGLEWVAQIKDKGNAYAAYYAPRVKGRFTISRDDSKNSIYLQMNSLKTEDTAVYYCHYVHYASASTVLPAFGVDAWGQGTTVTVSS
VL: DIVMTQSPLSLPVTPGEPASISCQASQELVHMNRNTYLHWYQQKPGQAPRLLIYKVSNRFPGVPDRFSGSGSGTDFTLKISRVEAEDVGVYYCAQGTSVPFTFGQGTKLEIK
B2: dBBDu183H S99T/dBBDu072L (antibody, name in Kabat numbering, V domains shown)
VH: B1 VH with R65S, S105T
VL: B1 VL
B3: dBBDu183H S99H/dBBDu072L (antibody, name in Kabat numbering, V domains shown)
VH: B1 VH with R65S, S105H
VL: B1 VL
B4: dBBDu183H S62T/dBBDu072L (antibody, name in Kabat numbering, V domains shown)
VH: B1 VH with R65T
VL: B1 VL
B5: dBBDu183H S99D/dBBDu072L (antibody, name in Kabat numbering, V domains shown)
VH: B1 VH with R65S, S105D
VL: B1 VL
B6: dBBDu183H S99N/dBBDu072L (antibody, name in Kabat numbering, V domains shown)
VH: B1 VH with R65S, S105N
VL: B1 VL
B7: dBBDu183H S62W/dBBDu072L (antibody, name in Kabat numbering, V domains shown)
VH: B1 VH with R65W
VL: B1 VL
B8: dBBDu183H S99W/dBBDu072L (antibody, name in Kabat numbering, V domains shown)
VH: B1 VH with R65S, S105W
VL: B1 VL
B9: dBBDu183H S62V/dBBDu072L (antibody, name in Kabat numbering, V domains shown)
VH: B1 VH with R65V
VL: B1 VL
B10: dBBDu183H S99K/dBBDu072L (antibody, name in Kabat numbering, V domains shown)
VH: B1 VH with R65S, S105K
VL: B1 VL
B11: dBBDu183H S99F/dBBDu072L (antibody, name in Kabat numbering, V domains shown)
VH: B1 VH with R65S, S105F
VL: B1 VL
B12: dBBDu183H S99V/dBBDu072L (antibody, name in Kabat numbering, V domains shown)
VH: B1 VH with R65S, S105V
VL: B1 VL
B13: dBBDu183H S99G/dBBDu072L (antibody, name in Kabat numbering, V domains shown)
VH: B1 VH with R65S, S105G
VL: B1 VL
B14: dBBDu183H S99E/dBBDu072L (antibody, name in Kabat numbering, V domains shown)
VH: B1 VH with R65S, S105E
VL: B1 VL
B15: dBBDu183H S99Q/dBBDu072L (antibody, name in Kabat numbering, V domains shown)
VH: B1 VH with R65S, S105Q
VL: B1 VL
B16: dBBDu183H S62Y/dBBDu072L (antibody, name in Kabat numbering, V domains shown)
VH: B1 VH with R65Y
VL: B1 VL
B17: dBBDu183H S99R/dBBDu072L (antibody, name in Kabat numbering, V domains shown)
VH: B1 VH with R65S, S105R
VL: B1 VL

Target: T1, Human CD3eg linker (human)
T1 construct: single-chain construct; also called recombinant human CD3
T1 chain: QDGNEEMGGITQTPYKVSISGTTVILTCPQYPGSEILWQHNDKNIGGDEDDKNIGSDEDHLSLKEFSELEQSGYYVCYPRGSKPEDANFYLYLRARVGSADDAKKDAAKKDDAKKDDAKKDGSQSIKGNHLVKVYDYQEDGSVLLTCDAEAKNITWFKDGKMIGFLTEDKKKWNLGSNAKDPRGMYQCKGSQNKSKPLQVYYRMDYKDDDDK
Experiment: SPR, vs unmutated H183/L072

Binder | fold change of affinity [fold]
B1 | 1.5
B2 | 0.9
B3 | 0.7
B4 | 1.3
B5 | 0.3
B6 | 0.6
B7 | 2
B8 | 0.9
B9 | 1.4
B10 | 1.8
B11 | 1
B12 | 0.8
B13 | 1
B14 | 0.3
B15 | 1
B16 | 1.5
B17 | 2
